Where a chain is given by its changes, count along the chain named. One block for each binder: values may come before it. Non-standard residues stand in square brackets, D forms with d. No end group written: not given here. *: point of attachment. Biotin = O=C1N[C@H]2[C@H](CS[C@H]2CCCCC(=O)*)N1; sY = N[C@@H](Cc1ccc(OS(=O)(=O)O)cc1)C(=O)O
Experiments:
Assay in all cases: ELISA, 50 nM mAb
[1] = biological target: T1, Sulfotyrosine D6 biotin peptide (human)
T1 construct: also called D6 peptide
T1 peptide: ENSSFY[sY][sY]D[sY]LDEVAFGGK(Biotin)
Description: (§1) Recombinant PSGL-1-hFc1 chimera protein consisting of PSGL-1's extracellular domain (ECD) served as a positive control. […] Primary antibody was added (25 ul per well) in duplicate at 50 nM in assay buffer (blocking buffer containing 0.05% Tween®20) into test and control (just blocked) wells and the plate incubated for 45 min at 37° C.

[2] = biological target: T2, Human fibrinogen protein (ThermoFisher, RP-43142) (human, UniProt P02671 20-629; P02675 31-491; P02679 27-453, limits assumed, natural sulfotyrosines)
T2 construct: mature; Native dimer with 3 pairs of non-identical chains; also called gamma-fibrinogen; γ fibrinogen protein
T2 sequence (looked up) 1: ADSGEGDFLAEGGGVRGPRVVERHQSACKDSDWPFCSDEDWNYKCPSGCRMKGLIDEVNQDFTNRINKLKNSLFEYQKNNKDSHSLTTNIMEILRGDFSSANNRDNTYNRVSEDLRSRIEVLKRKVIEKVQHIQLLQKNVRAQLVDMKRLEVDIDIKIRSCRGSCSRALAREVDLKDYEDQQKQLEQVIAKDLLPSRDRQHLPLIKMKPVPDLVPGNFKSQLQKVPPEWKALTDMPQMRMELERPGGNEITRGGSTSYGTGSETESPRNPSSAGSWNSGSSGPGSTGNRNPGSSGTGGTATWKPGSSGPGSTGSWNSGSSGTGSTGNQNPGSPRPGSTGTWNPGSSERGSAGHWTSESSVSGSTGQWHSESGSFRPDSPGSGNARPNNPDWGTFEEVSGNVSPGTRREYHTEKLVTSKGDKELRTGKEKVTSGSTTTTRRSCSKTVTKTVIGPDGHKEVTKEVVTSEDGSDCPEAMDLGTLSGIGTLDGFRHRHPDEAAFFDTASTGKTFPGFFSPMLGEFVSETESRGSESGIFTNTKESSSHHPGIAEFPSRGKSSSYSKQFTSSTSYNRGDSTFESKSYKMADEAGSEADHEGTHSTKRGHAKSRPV
T2 sequence (looked up) 2: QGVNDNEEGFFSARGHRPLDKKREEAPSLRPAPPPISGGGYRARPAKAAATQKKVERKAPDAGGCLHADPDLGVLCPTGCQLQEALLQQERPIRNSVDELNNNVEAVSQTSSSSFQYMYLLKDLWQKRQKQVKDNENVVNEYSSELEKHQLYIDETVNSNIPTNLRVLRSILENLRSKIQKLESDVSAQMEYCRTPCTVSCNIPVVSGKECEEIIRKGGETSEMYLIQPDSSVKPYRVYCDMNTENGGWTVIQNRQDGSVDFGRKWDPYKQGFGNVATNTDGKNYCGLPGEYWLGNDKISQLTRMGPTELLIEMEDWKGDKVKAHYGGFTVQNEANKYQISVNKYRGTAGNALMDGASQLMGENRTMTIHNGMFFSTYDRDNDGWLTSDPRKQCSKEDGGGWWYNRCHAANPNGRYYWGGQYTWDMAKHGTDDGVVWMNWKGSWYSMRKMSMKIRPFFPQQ
T2 sequence (looked up) 3: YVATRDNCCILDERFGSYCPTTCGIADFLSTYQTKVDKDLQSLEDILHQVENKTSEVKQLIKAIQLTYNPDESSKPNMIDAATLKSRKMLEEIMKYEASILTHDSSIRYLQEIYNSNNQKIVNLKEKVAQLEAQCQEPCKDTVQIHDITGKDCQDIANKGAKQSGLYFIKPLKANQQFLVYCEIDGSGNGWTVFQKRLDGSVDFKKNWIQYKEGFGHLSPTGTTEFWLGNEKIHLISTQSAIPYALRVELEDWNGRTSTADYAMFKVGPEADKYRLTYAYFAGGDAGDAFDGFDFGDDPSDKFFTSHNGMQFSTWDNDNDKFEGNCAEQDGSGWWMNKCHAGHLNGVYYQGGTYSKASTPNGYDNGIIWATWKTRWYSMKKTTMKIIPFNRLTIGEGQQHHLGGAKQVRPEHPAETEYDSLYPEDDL
Description: as §1

SulfoCCK biotin peptide = biological target: T3, SulfoCCK biotin peptide (human)
T3 construct: also called sulfotyrosine CCK peptide
T3 peptide: SHRISDRD[sY]MGWMDFGGK(Biotin)
Description: as §1

binding normalized to PSGL-1 [2]: 0.44
binding normalized to PSGL-1 (SulfoCCK biotin peptide): 0.85
B4: 05E08 (antibody, IgG4, V domains shown)
VH: EVQLVQSGGGVVQPGRSLRLSCAASGFTFSTYAMHWVRQAPGKGLEWVAVISYDGSNKYYADSVKGRFTISRDNSRNTLFLQMNSLRDEDTAVYYCAKRGTMIRGERSLDFWGQGTLVTVSS
VL: AIQMTQSPSFLSASVGDRVTITCRASQGINSWLAWYQQKPGTAPNLLIHAASTLQSGVPSRFSGSRSGTEFTLTISSLQPEDFATYYCQQLQSYPLTFGQGTRLEIK

binding normalized to PSGL-1 [1]: 1.1
binding normalized to PSGL-1 [2]: 0.29
binding normalized to PSGL-1 (SulfoCCK biotin peptide): 1.1
B6: 09A02 (antibody, IgG4, V domains shown)
VH: EVQLVQSGGGLVKPGGSLRLSCAASGFTFRTAWMSWVRQAPGKGLEWVGRMKSKNDGGTTDYAAPVKGRFTISRDDSRDTVYLQMNSLKTEDTGVYYCATYAAGATVPWGQGTLVTVSS
VL: DIVMTQTPLSAPVTLGQPASISCRSSRSLLQRNGYNYVDWYQQKAGNPPRLLIYLGSRRASGVPDRFSGSGSDKDFTLKISRVEADDVGFYFCKQSLQAPPTFGGGTKIEIT

binding normalized to PSGL-1 [1]: 0.8
binding normalized to PSGL-1 [2]: 0.29
binding normalized to PSGL-1 (SulfoCCK biotin peptide): 0.74
B12: 05H03 (antibody, IgG4, V domains shown)
VH: QVQLQQSGGGLVQPGGSLTLSCVGSGFDFRSYAMSWVRQAPGKGLEWVSGINNSGSKTYYADFVKGRFSVSRDNSKNIVWLRMRSLRAEDTAVYYCARRTFGPPHAWGQGTMVTVSS
VL: DIVMTQSPLSLSVTPGEPASISCRSSQSLLHSNGYKYLDWYLQKPGQSPQLLIYMGSNRASGVPDRFSGSGSGTDFTLKISRVEAEDVGVYYCMQGLQSPLTFGGGTKVEIE

binding normalized to PSGL-1 [2]: 0.23
binding normalized to PSGL-1 (SulfoCCK biotin peptide): 0.96
B13: 03F03 (antibody, V domains shown)
VH: QVQLQESGPGLVKPSETLSLTCTVSGGSISSSSYYWGWIRQPPGKGLEWIGSIYYSGSTYYNPSLKSRVTISVDTSKNQFSLKLSSVTAADTAVYYCARSRPRPWAFDIWGQGTMVTVSS
VL: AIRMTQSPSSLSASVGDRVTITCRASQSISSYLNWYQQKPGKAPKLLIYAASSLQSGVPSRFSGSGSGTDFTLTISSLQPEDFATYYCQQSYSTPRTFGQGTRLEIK

The next lines start with the binder.

B1: 06C04 (antibody, IgG4, V domains shown)
VH: EVQLVESGGGLVQPGGSLRLSCAASGFTFSDHYMDWVRQAPGKGLEWVGRSRNKVKSYTTAYAASVEGRITISRDDSKNSLYLEMNSLKTEDTAVYYCVRVRWGGAFDIWGQGTMVTVSS
VL: QPVLTQPPSASGSPGQSVTISCTGTSSDVGGYNYVSWYQQHPGKAPKLMIYEVSKRPSGVPDRFSGSKSGNTASLTVSGLQAEDEADYYCSSYAGSNNLRVFGGGTKLTVL
binding normalized to PSGL-1 [1]: 0.26
binding normalized to PSGL-1 [2]: 0.51
binding normalized to PSGL-1 (SulfoCCK biotin peptide): 0.06

B2: 05A11 (antibody, IgG4, V domains shown)
VH: EVKLLESGGGVVQPGRSLRLSCAASGFSFSAYGMHWVRQAPGKGLEWVSSISGSGDGTYYADSVKGRFTISRDNSKNTLYLQMNSLRAEDAAVYYCAKSVKGRGYFFDYWGQGTLVTVSS
VL: DIVLTQSPSSLSASVGDRVTITCRASQSISSYLNWYQQKPGKAPKLLIYAASSLQSGVPSRFSGSGSGTDFTLSISNLQPEDFATYYCQQAYKFPRSFGGGTKVEFK
binding normalized to PSGL-1 [1]: 0.45
binding normalized to PSGL-1 [2]: 0.21
binding normalized to PSGL-1 (SulfoCCK biotin peptide): 0.41

B3: 05C02 (antibody, V domains shown)
VH: EVKLLESGGGVVQPGRSLRLSCAASGFTFKNFAMHWVRQAPGKGLEWVAVISYDGSSEDYADSVKGRFTLSRDNAKNSLYLQMNNLRAEDTAVYYCARGRRPDYWGQGTLVTVSS
VL: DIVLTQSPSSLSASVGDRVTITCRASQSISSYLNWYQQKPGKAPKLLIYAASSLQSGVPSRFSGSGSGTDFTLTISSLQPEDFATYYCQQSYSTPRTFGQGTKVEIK
binding normalized to PSGL-1 [1]: 0.52
binding normalized to PSGL-1 [2]: 0.06
binding normalized to PSGL-1 (SulfoCCK biotin peptide): 0.17

B5: 06A07 (antibody, IgG4, V domains shown)
VH: QVQLVQSGPELKNPGASVKVSCKASGYSFTNFYINWVRQAPGRGLEWVGWISPNNGNTHYARNLQGRVTMTTDTSTNTAYLELKNLRSDDTAIYFCGRSVSMGYWGQGTLVTVSS
VL: LPVLTQPPSVSKGLRQTATLTCTGNSKNVGNQGAAWLQQHQGQPPKLLSYRNNNRPSGISERFSASRSGNTASLTITGLQPEDEADYYCSAWDSSLSAQVFGGGTKLTVL
binding normalized to PSGL-1 [1]: 0.68
binding normalized to PSGL-1 [2]: 0.12
binding normalized to PSGL-1 (SulfoCCK biotin peptide): 0.65

B7: 09C10 (antibody, V domains shown)
VH: EVKLLESGGGLIQPGGSLRLSCAASGFTVSNNYVTWVRQAPGKGLELVSSIYSGGGTYYADSVKGRFTISRDNSKNTVYLQMNSLRADDTAVYYCARNVPVTNFGYWGQGTLVTVSS
VL: DIVMTQSPLSLPVTLGQPASISCRSSQSLVYRDGNTYLNWFQQRPGQSPRRLIYKVSNRDSGVPDRFSGSGSGTDFTLKISRVEAEDVGVYYCMQLTHWPPGFAQGTKLEIK
binding normalized to PSGL-1 [1]: 1.2
binding normalized to PSGL-1 [2]: 0.61
binding normalized to PSGL-1 (SulfoCCK biotin peptide): 0.75

B8: 09A08 (antibody, IgG4, V domains shown)
VH: QVQLVQSGAAVKKPGESLKISCKGSGYTFSNYWIGWVRQMPGKGLEWMGIIYPGDSDTRYSPSFQGQVTISADKSISTAYLQWSSLKASDTAMYYCARHIVGPPKSAFDIWGQGTMVTVSS
VL: DIVMTQTPLSLPVTLGQPASISCSSSQGLQKRDGNTYLNWFQQRPGQSPRRLIYKVSNRDSGVPDRFSGSGSGTDFTLKISRVEAEDVGVYYCMQGTHWPWTFGQGTRVEIK
binding normalized to PSGL-1 [1]: 0.6
binding normalized to PSGL-1 [2]: 0.05
binding normalized to PSGL-1 (SulfoCCK biotin peptide): 0.08

B9: 07E07 (antibody, IgG4, V domains shown)
VH: QVQLQQSGAEVKKPGASVKVSCKASGYTFTSYYMHWVRQAPGQGLEWMGIINTSSGSTKYAQRFQDRVTVTRDTSTTTVYMELNSLRSEDTAVYYCARGGRAYSGSFDNWGQGTLVTVSS
VL: B7 VL with I2V, Y31H, L38F, L96A, P101R, G102T, A104G, L109V
binding normalized to PSGL-1 [2]: 0.29
binding normalized to PSGL-1 (SulfoCCK biotin peptide): 0.75

B10: 11D10 (antibody, IgG4, V domains shown)
VH: EVKLLESGGGLVQPGGSLRLSCAVSGFTFSTSAMIWVRQAPGKGLEWVSFISGSTSNTYYADSVKGRFTISRDNSKNTLYLQMNGLTAEDTAVYYCARGTAAATWGQGALVTVSS
VL: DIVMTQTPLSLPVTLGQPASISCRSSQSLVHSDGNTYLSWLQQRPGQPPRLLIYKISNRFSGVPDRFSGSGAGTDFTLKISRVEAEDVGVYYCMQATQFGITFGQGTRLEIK
binding normalized to PSGL-1 [1]: 0.08
binding normalized to PSGL-1 [2]: 0.03
binding normalized to PSGL-1 (SulfoCCK biotin peptide): 0.05

B11: 09D04 (antibody, IgG4, V domains shown)
VH: B12 VH
VL: DVVMTQSPLSLPVTPGEPASISCRSSQSLLHSNGYTYLEWYLHKPGQSPQLLIYLGSNRASGVPDRFSGSGSGTDFTLKISRVEAEDVGVYYCMHSLHIPFTFGPGTKVDIK
binding normalized to PSGL-1 [1]: 0.75
binding normalized to PSGL-1 [2]: 0.25
binding normalized to PSGL-1 (SulfoCCK biotin peptide): 0.53

From patent US20220396632A1 (VERSEAU THERAPEUTICS, published 2022)
